Laboratory results as given in the supplement of paper PMC9170038.

Tested on: MS2 coat protein
Assay: apparent KD of MS2 coat protein; higher = weaker reporter binding
Settings: Eterna round: R107; input ligand: arginine 13.2 mM
In short: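 Designed RNA switches, transcribed on-chip from Illumina sequencing clusters, were titrated with SNAP-549-labelled MS2 coat protein from 0.7 or 1.5 nM to 3 µM in twofold steps. The solution was 100 mM Tris-HCl pH 7.5, 80 mM KCl, 4 mM MgCl2, with constant ligand or without it. Apparent KD is the median over each design's normalised cluster binding-curve fits.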

In the case of “UGCAUUAUACAUGGAUCACCCAUGUAGACACGAGGACCGGUACGGCCGCCACUCGGAAGAGGGAACAUGAGGAUCACCCAUGUGA [Try A SS t1]”, the “apparent KD of MS2 coat protein” value is reported as 0.0256 µM.

Same assay, conditions: Eterna round: R107; input ligand: none

“UGGUACAUGGCGGCCGCCACUUCACGUAAAAUAAAAACUUGAGGAACACCCAAGUAAUAAGUUGGGAGGACCGGGUCAUGUACCU” and “AAAAGAGGUGGAAGGAGCGGGAGACAUGAGGAUCACCCAUGUGAAGUAACGAAAGGUACAGCCCAGGUAGGUCGCCAUGUCGAAA [qxqamullin]” are within 1.5-fold of each other in “apparent KD of MS2 coat protein” value: 0.0362 µM for the first, 0.0317 µM for the second.

First: GGCCGAUGGUGCGAUACCAGCUUGAGUGUACUGGCCAGGUACAUGAGGAUCACCCAUGUAAGCCCUUGGCAGCGCGUCAAAGGCC [#1 Exclusion - Theophylline B Attempt #20 (HarryS)]
Second: ACCGCAUCCGUAUAGGAUGCGGCCCAUGAAGGAGCGUGGGAAACCACAGGUAGGUCGCAUGGACAUGAGGAUCACCCAUGUUAUU [Inception]
The “apparent KD of MS2 coat protein” value of the first is 5.3-fold lower: 0.0113 µM for the first, 0.0598 µM for the second.

First: UUAUAUAUGCGAAGGAGCGGGAAAUAUAUAUAUAUAAUCCUAACAUGAGGAUCACCCAUGUCCCAGGUAGGUCGCGCAUAUAUAG [12.C]
Second: AGACGAGAAGAGGAUUACCCAUGUACAGAAGGAGCGUCGUUGACGACAGGUAGGUCGCUGAGAACAUGAGGAUCACCCAUGUUGA [Arg A Ex t1]
The “apparent KD of MS2 coat protein” value of the first is 1.8-fold higher: 0.079 µM for the first, 0.0429 µM for the second.

Compared with “ACAUGGGUCUGAAGGAGCGCGAUAACAUGAGGAUCACCCAUGUAAAAUGGAACAUGAUAAUCGCAGGUAGGUCGCAGUAAAACCC [Same State Arginine B GF 11]”, “AAGGUGAUCCGUGAUACCAGCUCAACAUGAGGAUCACCCAUGUAAGCCUGGAAACAGGCGAGCCCUUGGCAGCACGGUUGCCAAG [(M)'-(Theo1)-(Ms2)-(Theo2)-(M'')-(T2)'_Design1]” is 1.8-fold lower in “apparent KD of MS2 coat protein” value: 0.303 µM for the first, 0.165 µM for the second.

“UCGCUCUGGGUGGGAUCCGGAGAUGUGGAAGGAGCGCUGGUUACAGCAGGUAGGUCGCCAACGGACAUGAGGAUCACCCAUGUAC [Same State - Arginine A (Freestyle 16)]” and “UGAUAUGUAGGAAGGAGCGCAUACUUCACAUGAGGAUCACCCAUGUCAAGACGUGAGUCAGUGCAGGUAGGUCGCCUAGUUAUGA [Same State - Arginine B (Freestyle 20)]” are within 1.5-fold of each other in “apparent KD of MS2 coat protein” value: 0.0413 µM for the first, 0.0449 µM for the second.

Compared with “GGUGGGAGCAACGAUACCAGCUACAUGAGGAUCACCCAUGUGGAAUGGGAGUCAACAGCGAGCCCUUGGCAGCGUUAGACCCAAA [Bebeeserdi]”, “ACAUUUAACUGAAGGAGCGUGAAUAACAUGAGGAUCACCCAUGUAACUUAGAUUCUUAUAUCACAGGUAGGUCGCAGACUAAUGA [JR_ExcArginiB_Sub012]” is 1.5-fold higher in “apparent KD of MS2 coat protein” value: 0.0113 µM for the first, 0.017 µM for the second.

With “GACCUUGCGGGCGCCCGCAAGGUUGCGGAUACCAGCGAGGUCCAUCGCCCUUGGCAGCCGAACAUGAGGAUCACCCAUGUCGGAC [Same State - Theophylline A Attempt #3 (HarryS)]” the “apparent KD of MS2 coat protein” value was 0.0114 µM.

Same assay, conditions: Eterna round: R107; input ligand: theophylline 20 uM

First: CCCACAAGCACGGCCGCCACUAUAUUAAUUACUGUCCUAGAACAUGAGGAUCACCCAUGUUAAUGUAGGACCGGGUGCGGGCCCG [theeternabot_exclusion_MS2_Trp_B_7]
Second: UGGUACAUGGCGGCCGCCACUUCACGUAAAAUAAAAACUUGAGGAACACCCAAGUAAUAAGUUGGGAGGACCGGGUCAUGUACCU
The “apparent KD of MS2 coat protein” value of the first is 3.6-fold lower: 0.0115 µM for the first, 0.0417 µM for the second.

Going from “AAAAGAGGUGGAAGGAGCGGGAGACAUGAGGAUCACCCAUGUGAAGUAACGAAAGGUACAGCCCAGGUAGGUCGCCAUGUCGAAA [qxqamullin]” to “GGCCGAUGGUGCGAUACCAGCUUGAGUGUACUGGCCAGGUACAUGAGGAUCACCCAUGUAAGCCCUUGGCAGCGCGUCAAAGGCC [#1 Exclusion - Theophylline B Attempt #20 (HarryS)]”, the “apparent KD of MS2 coat protein” value falls from 0.0735 µM to 0.0176 µM (4.2-fold).

“ACCGCAUCCGUAUAGGAUGCGGCCCAUGAAGGAGCGUGGGAAACCACAGGUAGGUCGCAUGGACAUGAGGAUCACCCAUGUUAUU [Inception]” and “UUAUAUAUGCGAAGGAGCGGGAAAUAUAUAUAUAUAAUCCUAACAUGAGGAUCACCCAUGUCCCAGGUAGGUCGCGCAUAUAUAG [12.C]” are within 1.5-fold of each other in “apparent KD of MS2 coat protein” value: 0.0793 µM for the first, 0.117 µM for the second.

Compared with “AGACGAGAAGAGGAUUACCCAUGUACAGAAGGAGCGUCGUUGACGACAGGUAGGUCGCUGAGAACAUGAGGAUCACCCAUGUUGA [Arg A Ex t1]”, “ACAUGGGUCUGAAGGAGCGCGAUAACAUGAGGAUCACCCAUGUAAAAUGGAACAUGAUAAUCGCAGGUAGGUCGCAGUAAAACCC [Same State Arginine B GF 11]” is 6.4-fold higher in “apparent KD of MS2 coat protein” value: 0.0539 µM for the first, 0.344 µM for the second.

“AAUGUGAAGGCGGCCGCCACUGAUAAUAGACAUGAGGAUCACCCAUGUAUAAAUCCUCAAUAAGACAGGACCGGGCCAACUACGU [Exclusion Tryptophan B GF 1]” and “AACGAGUGGCGGCCAUUGGGUGAUCCUCUACGAGGACCGGUACGGCCGCCACUCGAUAACAUGAGGAUCACCCAUGUGCCGAUAA [|T'-M'-Trp-Ms2|_Design10b]” are within 1.5-fold of each other in “apparent KD of MS2 coat protein” value: 0.114 µM for the first, 0.164 µM for the second.

First: AAUAAGCAGCUGCAAGGUGAUCCUGCAGAUACCAGCUAGGAAACUAGCCCUUGGCAGCUGCAACAUGAGGAUCACCCAUGUAAUA [(T)'-(M)'-(T1)-(T2)-(M1)-(M2)_Design6]
Second: AAGGUGAUCCGUGAUACCAGCUCAACAUGAGGAUCACCCAUGUAAGCCUGGAAACAGGCGAGCCCUUGGCAGCACGGUUGCCAAG [(M)'-(Theo1)-(Ms2)-(Theo2)-(M'')-(T2)'_Design1]
The “apparent KD of MS2 coat protein” value of the first is 2.2-fold lower: 0.0617 µM for the first, 0.138 µM for the second.

Compared with “UUCGUUGGCGAUCUGGGUUUACCAGAUCGGCGAGGACCGGUACGGCCGCCACUCGUGUUUUCUUUACAUGAGGAUCACCCAUGUU [SSTA #3]”, “UCGCUCUGGGUGGGAUCCGGAGAUGUGGAAGGAGCGCUGGUUACAGCAGGUAGGUCGCCAACGGACAUGAGGAUCACCCAUGUAC [Same State - Arginine A (Freestyle 16)]” is 2-fold higher in “apparent KD of MS2 coat protein” value: 0.0253 µM for the first, 0.0494 µM for the second.
